What was measured:
[1] = tested on: T1, NC(=O)C1=CN([C@@H]2O[C@H](COP(=O)(O)OP(=O)(O)OC[C@H]3O[C@@H](n4cnc5c(N)ncnc54)[C@H](OP(=O)(O)O)[C@@H]3O)[C@@H](O)[C@H]2O)C=CC1; assay: cytochrome c reduction, A550; type: biochemical, Panax ginseng; conditions: 100 μmol/L cytochrome c, NADPH 0-400 μmol/L, 50 mmol/L Tris HCl pH 7.4, 0.1 mmol/L EDTA, 25 °C
T1 construct: pET28a, His-tag, E. coli BL21(DE3), Ni-NTA

[2] = tested on: NC(=O)C1=CN([C@@H]2O[C@H](COP(=O)(O)OP(=O)(O)OC[C@H]3O[C@@H](n4cnc5c(N)ncnc54)[C@H](OP(=O)(O)O)[C@@H]3O)[C@@H](O)[C@H]2O)C=CC1; assay: purified protein; conditions: 100 μmol/L cytochrome c, NADPH 0-400 μmol/L, 50 mmol/L Tris HCl pH 7.4, 0.1 mmol/L EDTA, 25 °C

PgCPR1 (Panax ginseng), sequence (chain, as listed by the source): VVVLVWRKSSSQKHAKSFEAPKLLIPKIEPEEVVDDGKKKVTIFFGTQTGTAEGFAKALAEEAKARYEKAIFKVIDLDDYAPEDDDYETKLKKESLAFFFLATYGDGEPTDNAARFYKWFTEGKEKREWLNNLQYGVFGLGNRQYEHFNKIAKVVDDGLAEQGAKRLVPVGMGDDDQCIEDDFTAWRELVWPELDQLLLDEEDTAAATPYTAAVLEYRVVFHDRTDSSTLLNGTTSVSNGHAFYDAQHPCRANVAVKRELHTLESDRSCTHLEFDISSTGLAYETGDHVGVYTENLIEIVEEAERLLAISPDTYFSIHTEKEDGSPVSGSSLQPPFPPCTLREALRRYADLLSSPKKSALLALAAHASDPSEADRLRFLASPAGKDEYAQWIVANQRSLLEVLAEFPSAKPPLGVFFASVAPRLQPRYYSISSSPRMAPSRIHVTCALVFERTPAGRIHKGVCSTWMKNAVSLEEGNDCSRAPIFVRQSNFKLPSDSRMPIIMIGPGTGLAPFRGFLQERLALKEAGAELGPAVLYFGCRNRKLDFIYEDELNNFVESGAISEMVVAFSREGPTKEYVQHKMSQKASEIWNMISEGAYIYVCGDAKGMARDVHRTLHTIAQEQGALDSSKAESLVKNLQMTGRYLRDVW
PgCPR2 (Panax ginseng), sequence (chain, as listed by the source): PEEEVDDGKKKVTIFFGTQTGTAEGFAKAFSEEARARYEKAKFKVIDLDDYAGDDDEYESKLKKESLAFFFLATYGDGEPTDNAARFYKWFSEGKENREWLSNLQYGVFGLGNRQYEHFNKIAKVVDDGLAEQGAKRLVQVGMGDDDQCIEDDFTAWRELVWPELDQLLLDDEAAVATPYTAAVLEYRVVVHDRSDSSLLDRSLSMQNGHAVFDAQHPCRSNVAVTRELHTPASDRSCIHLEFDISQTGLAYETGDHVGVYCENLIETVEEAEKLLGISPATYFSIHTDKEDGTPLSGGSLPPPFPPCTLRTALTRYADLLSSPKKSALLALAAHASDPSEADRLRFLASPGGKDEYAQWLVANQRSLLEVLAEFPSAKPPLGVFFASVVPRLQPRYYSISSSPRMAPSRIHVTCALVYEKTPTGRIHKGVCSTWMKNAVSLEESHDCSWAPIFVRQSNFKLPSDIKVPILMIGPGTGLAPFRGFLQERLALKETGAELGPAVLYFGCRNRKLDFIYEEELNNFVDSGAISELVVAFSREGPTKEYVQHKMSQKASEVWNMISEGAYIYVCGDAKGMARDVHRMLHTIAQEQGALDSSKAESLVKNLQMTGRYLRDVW

Row | Substance | Km [1] [µM] | kcat [1] [s⁻¹] | kcat/Km [1] [M⁻¹ s⁻¹] | Km [2] [µM] | kcat [2] [s⁻¹] | kcat/Km [2] [M⁻¹ s⁻¹]
1 | PgCPR2 (Panax ginseng) | 85.27 ± 6.07 | 3.38 ± 0.087 | 39600 | – | – | –
2 | AtCPR1 (Arabidopsis thaliana) | – | – | – | 84.61 ± 8.548 | 2.74 | 32400
3 | PgCPR1 (Panax ginseng) | 62.9 ± 5.807 | 3.32 ± 0.0968 | 52800 | – | – | –

Source: publication PMC8588036, “Molecular Cloning and Identification of NADPH Cytochrome P450 Reductase from Panax ginseng” (Molecules, 2021)
